Reference: article PMC10503415

How the values were obtained:
[1] = target: DhmeA^ΔGG (Haloferax mediterranei); assay: crystal structure; DhmeA^ΔGG 12-14 mg/mL; sitting drop at 10°C; 0.1 M MES/imidazole pH 6.5, 0.1 M amino acids, 10% PEG 4,000, 20% glycerol; 3.3 Å
[2] = target: full-length wild-type DhmeA from pnEA/3CH-dhmeA, His6 tag removed with 3C protease (Haloferax mediterranei); assay: dynamic light scattering; wild-type DhmeA 1 mg/mL in 1 M NaCl, 10 mM Tris pH 8.0, 0.5 mM TCEP; Delsa Max Core
[3] = target: full-length wild-type DhmeA from pnEA/3CH-dhmeA, His6 tag removed with 3C protease (Haloferax mediterranei); assay: cryo-EM structure; full-length DhmeA 0.035 mg/mL on Quantifoil grids; data collected at 0° and 44° stage tilt on a Titan Krios; 7-8 Å

| stoichiometry N [1] | stoichiometry N [2] | stoichiometry N [3] | Substance |
| --- | --- | --- | --- |
| 20 |  |  | DhmeA^ΔGG (enzyme) |
|  | 4 | 6 | full-length wild-type DhmeA from pnEA/3CH-dhmeA, His6 tag removed with 3C protease (enzyme) |
